Target: T1, Synaptotagmin Like 1 (SYTL1), on the HuProt v3.1 human proteome array (human, UniProt Q8IYJ3 1-562)
T1 construct: Synaptotagmin Like 1 (SYTL1), human; as arrayed on HuProt v3.1; source: spotted on the HuProt v3.1 human proteome array (CDI NextGen Proteomics)
T1 sequence (looked up): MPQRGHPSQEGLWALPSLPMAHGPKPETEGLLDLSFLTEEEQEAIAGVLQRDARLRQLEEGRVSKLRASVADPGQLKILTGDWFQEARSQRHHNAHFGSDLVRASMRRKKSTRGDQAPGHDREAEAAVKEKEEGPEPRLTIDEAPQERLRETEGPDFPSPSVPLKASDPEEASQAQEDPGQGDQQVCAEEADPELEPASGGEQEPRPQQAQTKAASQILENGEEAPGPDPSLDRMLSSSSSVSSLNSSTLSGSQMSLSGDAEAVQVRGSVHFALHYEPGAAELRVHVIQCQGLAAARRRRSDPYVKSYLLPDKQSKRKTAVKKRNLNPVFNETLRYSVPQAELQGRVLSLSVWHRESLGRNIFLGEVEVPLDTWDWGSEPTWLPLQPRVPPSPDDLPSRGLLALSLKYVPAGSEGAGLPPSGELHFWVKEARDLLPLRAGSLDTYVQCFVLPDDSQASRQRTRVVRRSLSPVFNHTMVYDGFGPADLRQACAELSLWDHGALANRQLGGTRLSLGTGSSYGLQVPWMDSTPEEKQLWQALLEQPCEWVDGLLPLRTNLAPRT
Assay: peptide or protein array; HuProt v3.1 human proteome array probed with recombinant AKT2 at 1 ug/mL; GenePix analysis; only interactions with a Z-score above 6 considered
Details: both partners purified

binding result: binds
B1: recombinant AKT2 (RAC-beta serine/threonine-protein kinase) (enzyme, human, UniProt P31751 1-481, looked up)
chain: MNEVSVIKEGWLHKRGEYIKTWRPRYFLLKSDGSFIGYKERPEAPDQTLPPLNNFSVAECQLMKTERPRPNTFVIRCLQWTTVIERTFHVDSPDEREEWMRAIQMVANSLKQRAPGEDPMDYKCGSPSDSSTTEEMEVAVSKARAKVTMNDFDYLKLLGKGTFGKVILVREKATGRYYAMKILRKEVIIAKDEVAHTVTESRVLQNTRHPFLTALKYAFQTHDRLCFVMEYANGGELFFHLSRERVFTEERARFYGAEIVSALEYLHSRDVVYRDIKLENLMLDKDGHIKITDFGLCKEGISDGATMKTFCGTPEYLAPEVLEDNDYGRAVDWWGLGVVMYEMMCGRLPFYNQDHERLFELILMEEIRFPRTLSPEAKSLLAGLLKKDPKQRLGGGPSDAKEVMEHRFFLSINWQDVVQKKLLPPFKPQVTSEVDTRYFDDEFTAQSITITPPDRYDSLGLLELDQRTHFPQFSYSASIRE
notes: AKT2, RAC-beta serine/threonine-protein kinase; recombinant protein used as the probe on the HuProt v3.1 array; source: recombinant
